Measurements reported in PMC2891831, “Insight into the Mechanisms of Adenovirus Capsid Disassembly from Studies of Defensin Neutralization” (PLoS Pathogens, 2010).

Key:
CAR receptor [1] = biological target: T1, CAR receptor (human (endogenous in A549), UniProt P78310 20-365); test: flow cytometry on cells; as a6, but the Alexa Fluor 488-labelled Ad5.eGFP was pre-incubated with 20 µM HD5 for 45 min on ice; conditions: one partner purified
T1 construct: source: endogenous, on A549 cells
T1 sequence: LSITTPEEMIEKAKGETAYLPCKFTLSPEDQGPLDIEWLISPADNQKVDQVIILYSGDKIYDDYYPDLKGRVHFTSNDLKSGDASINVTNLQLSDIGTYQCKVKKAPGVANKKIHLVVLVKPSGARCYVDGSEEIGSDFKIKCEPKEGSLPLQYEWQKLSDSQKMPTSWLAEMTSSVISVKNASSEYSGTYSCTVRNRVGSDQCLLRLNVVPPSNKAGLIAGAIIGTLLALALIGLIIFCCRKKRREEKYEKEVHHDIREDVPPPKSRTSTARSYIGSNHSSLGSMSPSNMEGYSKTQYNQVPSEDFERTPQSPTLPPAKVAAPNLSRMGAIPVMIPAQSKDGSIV

CAR receptor [2] = biological target: T1, CAR receptor; test: flow cytometry on cells; A549 cells in PBS + 0.2% sodium azide incubated with or without 200 nM 5FK or 16FK, 45 min on ice (100 nM in the legend), then combined with Alexa Fluor 488-labelled Ad5.eGFP without defensin (virus pre-incubated with 20 µM HD5-Abu was equivalent to virus alone), 45 min on ice; conditions: one partner purified

B1: recombinant HAdV-5 fiber knob (domain or fragment)
chain: GAITVGNKNNDKLTLWTTPAPSPNCRLNAEKDAKLTLVLTKCGSQILATVSVLAVKGSLAPISGTVQSAHLIIRFDENGVLLNNSFLDPEYWNFRNGDLTEGTAYTNAVGFMPNLSAYPKSHGKTAKSNIVSQVYLNGDKTKPVTLTITLNGTQETGDTTPSAYSMSFSWDWSGHNYINEIFATSSYTFSYIAQE
notes: fiber knob, residues 387-581 of the HAdV-5 fiber; also called 5FK
fold reduction of HAdV-5 binding to cells with 5FK compared to 16FK, virus pre-incubated with HD5 (CAR receptor [1]): 1.6 fold | fold reduction of HAdV-5 binding to cells with 5FK compared to 16FK (CAR receptor [2]): 5.2 fold
